The numbers were not newly measured in article PMC7294537, which cites them from elsewhere.

The target in one data set is lysozyme (Gallus gallus) (UniProt P00698).
The target of data set [1] is CUE domain CUE (Saccharomyces cerevisiae) (UniProt P36075).
CUE domain CUE (Saccharomyces cerevisiae), sequence (P36075 8-51): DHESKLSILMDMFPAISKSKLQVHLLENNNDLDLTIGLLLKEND

ubiquitin, sequence (P0CG63 1-76): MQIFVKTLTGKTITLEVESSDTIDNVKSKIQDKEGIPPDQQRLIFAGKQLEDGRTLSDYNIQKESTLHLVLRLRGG
lysozyme, sequence (P00698 19-147): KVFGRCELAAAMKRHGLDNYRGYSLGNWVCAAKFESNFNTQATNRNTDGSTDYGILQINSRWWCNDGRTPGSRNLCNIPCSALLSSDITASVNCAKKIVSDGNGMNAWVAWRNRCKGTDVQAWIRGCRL

Consider lysozyme (from UniProt P00698), for which, in the data set with lysozyme (Gallus gallus), the Kd is 2710 µM. For the substance ubiquitin (from UniProt P0CG63), the Kd in data set [1] is 155 µM.
